The results in this text go back to publication doi:10.1101/2024.07.01.601608 (bioRxiv, 2024).

B2: MED14 (endogenous) (natural protein)
chain: not shown

One assay addresses MED12 (endogenous) (human (endogenous in 293-F), UniProt Q93074 1-2177). Kind of assay: cross-linking.
In the assay “MED14 (endogenous)” the target is B2. Description: cryo-EM structure.
Assay [1] has as its target T1, MED13 (endogenous) (human (endogenous in 293-F), UniProt Q9UHV7 1-2174). Kind of assay: cryo-EM structure.
Another assay addresses MED13L (endogenous) (human (endogenous in 293-F), UniProt Q71F56 1-2210). Kind of assay: cross-linking.
In assay [2] the target is T1, MED13 (endogenous). Description: cross-linking.
The next assay has as its target MED12L (endogenous) (human (endogenous in 293-F), UniProt Q86YW9 1-2145). Kind of assay: cross-linking.
The target of assay [3] is recombinant human CDK8-Flag (baculovirus) (human, UniProt P49336 1-464). Description: cryo-EM structure.
Sequence of recombinant human CDK8-Flag (baculovirus) (P49336 whole entry): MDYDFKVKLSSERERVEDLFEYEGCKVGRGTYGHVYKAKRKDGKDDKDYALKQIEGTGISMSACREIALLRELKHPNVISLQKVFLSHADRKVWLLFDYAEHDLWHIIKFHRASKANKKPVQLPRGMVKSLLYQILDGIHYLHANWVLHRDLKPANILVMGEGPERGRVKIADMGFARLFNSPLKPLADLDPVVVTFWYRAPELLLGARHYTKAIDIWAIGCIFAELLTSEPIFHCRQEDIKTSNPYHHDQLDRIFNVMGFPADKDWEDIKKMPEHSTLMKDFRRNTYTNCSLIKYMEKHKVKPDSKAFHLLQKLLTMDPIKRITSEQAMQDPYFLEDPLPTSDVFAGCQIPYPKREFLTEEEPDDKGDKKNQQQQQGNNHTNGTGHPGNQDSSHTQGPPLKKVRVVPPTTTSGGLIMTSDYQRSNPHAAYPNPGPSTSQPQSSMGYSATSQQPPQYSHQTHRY
For assay [4], the target named is recombinant human MED12-HA (baculovirus) (human, UniProt Q93074 1-2177). Kind of assay: cryo-EM structure.

T1 sequence (Q9UHV7 whole entry): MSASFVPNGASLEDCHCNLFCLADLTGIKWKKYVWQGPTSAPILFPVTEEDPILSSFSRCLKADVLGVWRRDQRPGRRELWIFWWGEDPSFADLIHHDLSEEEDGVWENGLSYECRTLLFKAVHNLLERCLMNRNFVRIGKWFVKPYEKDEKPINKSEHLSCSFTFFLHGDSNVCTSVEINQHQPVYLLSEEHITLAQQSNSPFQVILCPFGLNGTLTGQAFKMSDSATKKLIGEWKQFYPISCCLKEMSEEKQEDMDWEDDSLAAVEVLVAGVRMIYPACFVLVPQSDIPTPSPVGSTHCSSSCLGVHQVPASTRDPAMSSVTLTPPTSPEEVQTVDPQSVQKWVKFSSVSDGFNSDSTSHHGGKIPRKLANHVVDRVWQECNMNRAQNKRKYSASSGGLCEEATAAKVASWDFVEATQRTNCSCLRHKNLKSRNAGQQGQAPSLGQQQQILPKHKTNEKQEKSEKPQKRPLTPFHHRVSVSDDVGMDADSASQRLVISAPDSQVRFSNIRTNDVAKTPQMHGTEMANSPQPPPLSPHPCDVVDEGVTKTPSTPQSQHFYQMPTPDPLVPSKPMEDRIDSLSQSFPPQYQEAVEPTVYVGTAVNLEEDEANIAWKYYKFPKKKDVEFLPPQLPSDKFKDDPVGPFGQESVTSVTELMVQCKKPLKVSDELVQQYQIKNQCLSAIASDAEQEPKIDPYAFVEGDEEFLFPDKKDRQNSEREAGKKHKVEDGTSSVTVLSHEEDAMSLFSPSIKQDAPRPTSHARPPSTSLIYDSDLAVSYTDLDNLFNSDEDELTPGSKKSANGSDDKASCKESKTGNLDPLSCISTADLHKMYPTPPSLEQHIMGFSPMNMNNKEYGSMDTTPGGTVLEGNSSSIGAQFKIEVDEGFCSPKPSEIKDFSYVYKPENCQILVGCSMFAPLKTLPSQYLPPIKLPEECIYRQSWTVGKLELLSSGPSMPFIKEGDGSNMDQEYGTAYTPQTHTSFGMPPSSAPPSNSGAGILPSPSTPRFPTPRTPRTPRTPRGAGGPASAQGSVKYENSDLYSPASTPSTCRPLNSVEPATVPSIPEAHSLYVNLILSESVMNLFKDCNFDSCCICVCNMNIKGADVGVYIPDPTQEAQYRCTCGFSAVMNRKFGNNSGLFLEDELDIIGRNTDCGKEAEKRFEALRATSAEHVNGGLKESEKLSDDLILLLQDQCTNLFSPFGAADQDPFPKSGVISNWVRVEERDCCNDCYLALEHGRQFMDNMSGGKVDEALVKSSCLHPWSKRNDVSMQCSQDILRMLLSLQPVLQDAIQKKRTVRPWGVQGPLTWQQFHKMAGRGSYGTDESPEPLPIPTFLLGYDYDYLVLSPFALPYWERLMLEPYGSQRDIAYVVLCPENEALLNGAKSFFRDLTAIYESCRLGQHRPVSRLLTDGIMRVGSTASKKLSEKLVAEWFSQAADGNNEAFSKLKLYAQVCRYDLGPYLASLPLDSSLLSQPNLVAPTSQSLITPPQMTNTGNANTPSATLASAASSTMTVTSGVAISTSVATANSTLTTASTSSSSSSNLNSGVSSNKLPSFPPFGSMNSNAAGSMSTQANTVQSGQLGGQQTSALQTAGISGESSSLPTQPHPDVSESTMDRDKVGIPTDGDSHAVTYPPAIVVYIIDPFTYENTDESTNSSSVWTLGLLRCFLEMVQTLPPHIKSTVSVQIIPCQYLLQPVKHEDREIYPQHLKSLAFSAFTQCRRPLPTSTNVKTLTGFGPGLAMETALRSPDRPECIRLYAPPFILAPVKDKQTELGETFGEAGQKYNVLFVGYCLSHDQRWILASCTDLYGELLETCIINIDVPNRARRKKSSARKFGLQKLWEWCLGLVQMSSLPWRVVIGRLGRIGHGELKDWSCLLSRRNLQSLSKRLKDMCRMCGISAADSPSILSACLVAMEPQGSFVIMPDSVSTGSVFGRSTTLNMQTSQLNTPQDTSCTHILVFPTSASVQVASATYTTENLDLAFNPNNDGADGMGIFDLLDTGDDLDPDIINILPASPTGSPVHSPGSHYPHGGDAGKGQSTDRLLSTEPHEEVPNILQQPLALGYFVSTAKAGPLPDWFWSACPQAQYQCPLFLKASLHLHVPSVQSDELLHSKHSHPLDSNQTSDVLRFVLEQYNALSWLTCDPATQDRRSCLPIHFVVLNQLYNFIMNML
Sequence of MED13L (endogenous) (Q71F56 whole entry): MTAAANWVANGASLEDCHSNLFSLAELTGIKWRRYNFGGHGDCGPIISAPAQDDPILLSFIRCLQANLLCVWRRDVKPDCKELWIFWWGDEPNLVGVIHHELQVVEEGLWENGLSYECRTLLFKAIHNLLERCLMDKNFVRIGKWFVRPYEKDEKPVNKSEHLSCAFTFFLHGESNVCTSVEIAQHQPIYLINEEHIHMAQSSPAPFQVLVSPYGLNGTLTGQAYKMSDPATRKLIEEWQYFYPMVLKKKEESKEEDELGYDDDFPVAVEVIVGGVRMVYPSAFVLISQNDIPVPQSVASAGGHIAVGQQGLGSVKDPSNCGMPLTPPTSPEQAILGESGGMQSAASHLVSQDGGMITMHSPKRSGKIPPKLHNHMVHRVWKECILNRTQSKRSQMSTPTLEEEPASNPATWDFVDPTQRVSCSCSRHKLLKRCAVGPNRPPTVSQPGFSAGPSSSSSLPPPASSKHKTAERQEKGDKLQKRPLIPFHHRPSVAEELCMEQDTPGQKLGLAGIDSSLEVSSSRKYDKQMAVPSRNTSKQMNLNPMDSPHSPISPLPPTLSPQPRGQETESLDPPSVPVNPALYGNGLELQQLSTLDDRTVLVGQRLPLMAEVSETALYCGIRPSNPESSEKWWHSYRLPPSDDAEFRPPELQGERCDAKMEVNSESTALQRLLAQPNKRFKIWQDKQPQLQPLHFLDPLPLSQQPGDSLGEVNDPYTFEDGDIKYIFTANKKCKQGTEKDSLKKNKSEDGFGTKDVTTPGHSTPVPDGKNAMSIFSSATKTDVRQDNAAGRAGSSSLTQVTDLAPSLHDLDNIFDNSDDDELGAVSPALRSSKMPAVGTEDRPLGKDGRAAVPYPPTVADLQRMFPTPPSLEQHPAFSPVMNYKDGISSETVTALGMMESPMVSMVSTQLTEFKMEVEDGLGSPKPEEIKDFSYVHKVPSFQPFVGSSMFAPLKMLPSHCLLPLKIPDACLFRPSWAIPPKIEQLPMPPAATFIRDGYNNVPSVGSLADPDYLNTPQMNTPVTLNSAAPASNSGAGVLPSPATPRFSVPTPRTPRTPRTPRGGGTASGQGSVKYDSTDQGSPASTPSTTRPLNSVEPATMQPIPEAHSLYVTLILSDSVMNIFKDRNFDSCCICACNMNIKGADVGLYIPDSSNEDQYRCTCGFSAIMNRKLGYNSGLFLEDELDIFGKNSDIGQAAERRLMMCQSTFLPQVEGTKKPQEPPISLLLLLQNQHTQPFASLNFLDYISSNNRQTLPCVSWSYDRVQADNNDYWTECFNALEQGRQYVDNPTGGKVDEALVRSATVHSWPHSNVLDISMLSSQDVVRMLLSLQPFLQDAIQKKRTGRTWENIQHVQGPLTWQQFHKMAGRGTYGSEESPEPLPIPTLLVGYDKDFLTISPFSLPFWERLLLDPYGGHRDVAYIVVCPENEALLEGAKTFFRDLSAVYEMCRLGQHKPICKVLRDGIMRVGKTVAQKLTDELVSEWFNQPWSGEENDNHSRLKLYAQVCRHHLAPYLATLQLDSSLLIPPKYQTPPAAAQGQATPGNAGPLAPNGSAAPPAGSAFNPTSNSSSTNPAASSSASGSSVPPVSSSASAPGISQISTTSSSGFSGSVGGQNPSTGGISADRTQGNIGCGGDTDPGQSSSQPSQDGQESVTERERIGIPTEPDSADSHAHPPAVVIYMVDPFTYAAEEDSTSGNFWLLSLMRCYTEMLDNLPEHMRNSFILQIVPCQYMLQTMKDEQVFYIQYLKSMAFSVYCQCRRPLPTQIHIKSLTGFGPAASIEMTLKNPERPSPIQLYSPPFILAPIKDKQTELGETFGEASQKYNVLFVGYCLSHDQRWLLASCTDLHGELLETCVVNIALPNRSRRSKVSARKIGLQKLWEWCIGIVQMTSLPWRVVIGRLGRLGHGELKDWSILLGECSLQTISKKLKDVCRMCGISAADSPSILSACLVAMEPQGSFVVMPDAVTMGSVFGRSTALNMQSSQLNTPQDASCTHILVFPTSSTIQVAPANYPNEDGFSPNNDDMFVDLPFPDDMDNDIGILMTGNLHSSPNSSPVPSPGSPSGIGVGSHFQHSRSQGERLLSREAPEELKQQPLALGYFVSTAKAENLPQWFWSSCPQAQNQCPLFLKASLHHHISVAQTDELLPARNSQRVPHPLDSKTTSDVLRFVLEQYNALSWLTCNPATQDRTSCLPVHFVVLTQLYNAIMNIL

B1: MED19 (endogenous) (natural protein)
chain: MENFTALFGAQADPPPPPTALGFGPGKPPPPPPPPAGGGPGTAPPPTAATAPPGADKSGAGCGPFYLMRELPGSTELTGSTNLITHYNLEQAYNKFCGKKVKEKLSNFLPDLPGMIDLPGSHDNSSLRSLIEKPPILSSSFNPITGTMLAGFRLHTGPLPEQCRLMHIQPPKKKNKHKHKQSRTQDPVPPETPSDSDHKKKKKKKEEDPDRKRKKKEKKKKKNRHSPDHPGMGSSQASSSSSLR
Consider B1, for which the binding result with MED12 (endogenous), with MED14 (endogenous) and with MED13 (endogenous) [1] was “binds” throughout.
In the case of B2, in the assay with MED13L (endogenous), the binding result is “binds”.

B3: MED6 (endogenous) (natural protein)
chain: MAAVDIRDNLLGISWVDSSWIPILNSGSVLDYFSERSNPFYDRTCNNEVVKMQRLTLEHLNQMVGIEYILLHAQEPILFIIRKQQRQSPAQVIPLADYYIIAGVIYQAPDLGSVINSRVLTAVHGIQSAFDEAMSYCRYHPSKGYWWHFKDHEEQDKVRPKAKRKEEPSSIFQRQRVDALLLDLRQKFPPKFVQLKPGEKPVPVDQTKKEAEPIPETVKPEEKETTKNVQQTVSAKGPPEKRMRLQ
Consider B3, for which the binding result with MED13 (endogenous) [2] and with MED13L (endogenous) was “binds” throughout.

B4: MED22 (endogenous) (natural protein)
chain: MAQQRALPQSKETLLQSYNKRLKDDIKSIMDNFTEIIKTAKIEDETQVSRATQGEQDNYEMHVRAANIVRAGESLMKLVSDLKQFLILNDFPSVNEAIDQRNQQLRTLQEECDRKLITLRDEISIDLYELEEEYYSSSSSLCEANDLPLCEAYGRLDLDTDSADGLSAPLLASPEPSAGPLQVAAPAHSHAGGPGPTEHA
B4: the binding result with MED13L (endogenous) was “binds”.

B5: MED10 (endogenous) (natural protein)
chain: MAEKFDHLEEHLEKFVENIRQLGIIVSDFQPSSQAGLNQKLNFIVTGLQDIDKCRQQLHDITVPLEVFEYIDQGRNPQLYTKECLERALAKNEQVKGKIDTMKKFKSLLIQELSKVFPEDMAKYRSIRGEDHPPS
In the case of B5, the binding result in the assay with MED12 (endogenous), with MED13 (endogenous) [2], with MED12L (endogenous) and with MED14 (endogenous) was “binds” throughout.

B6: MED17 (endogenous) (natural protein)
chain: MSGVRAVRISIESACEKQVHEVGLDGTETYLPPLSMSQNLARLAQRIDFSQGSGSEEEEAAGTEGDAQEWPGAGSSADQDDEEGVVKFQPSLWPWDSVRNNLRSALTEMCVLYDVLSIVRDKKFMTLDPVSQDALPPKQNPQTLQLISKKKSLAGAAQILLKGAERLTKSVTENQENKLQRDFNSELLRLRQHWKLRKVGDKILGDLSYRSAGSLFPHHGTFEVIKNTDLDLDKKIPEDYCPLDVQIPSDLEGSAYIKVSIQKQAPDIGDLGTVNLFKRPLPKSKPGSPHWQTKLEAAQNVLLCKEIFAQLSREAVQIKSQVPHIVVKNQIISQPFPSLQLSISLCHSSNDKKSQKFATEKQCPEDHLYVLEHNLHLLIREFHKQTLSSIMMPHPASAPFGHKRMRLSGPQAFDKNEINSLQSSEGLLEKIIKQAKHIFLRSRAAATIDSLASRIEDPQIQAHWSNINDVYESSVKVLITSQGYEQICKSIQLQLNIGVEQIRVVHRDGRVITLSYQEQELQDFLLSQMSQHQVHAVQQLAKVMGWQVLSFSNHVGLGPIESIGNASAITVASPSGDYAISVRNGPESGSKIMVQFPRNQCKDLPKSDVLQDNKWSHLRGPFKEVQWNKMEGRNFVYKMELLMSALSPCLL
Turning to B6, the binding result with MED13L (endogenous) was “binds”.

B7: MED31 (endogenous) (natural protein)
chain: MAAAVAMETDDAGNRLRFQLELEFVQCLANPNYLNFLAQRGYFKDKAFVNYLKYLLYWKDPEYAKYLKYPQCLHMLELLQYEHFRKELVNAQCAKFIDEQQILHWQHYSRKRMRLQQALAEQQQQNNTSGK
For the molecule B7, the binding result with MED13 (endogenous) [2] is listed as “binds”.

B8: recombinant human CCNC-6xHis (baculovirus) (natural protein)
chain: MAGNFWQSSHYLQWILDKQDLLKERQKDLKFLSEEEYWKLQIFFTNVIQALGEHLKLRQQVIATATVYFKRFYARYSLKSIDPVLMAPTCVFLASKVEEFGVVSNTRLIAAATSVLKTRFSYAFPKEFPYRMNHILECEFYLLELMDCCLIVYHPYRPLLQYVQDMGQEDMLLPLAWRIVNDTYRTDLCLLYPPFMIALACLHVACVVQQKDARQWFAELSVDMEKILEIIRVILKLYEQWKNFDERKEMATILSKMPKPKPPPNSEGEQGPNGSQNSSYSQS
Turning to B8, the binding result in assay [3] and in assay [4] was “binds” in each case.

B9: CCNC (endogenous) (natural protein)
chain: MAGNFWQSSHYLQWILDKQDLLKERQKDLKFLSEEEYWKLQIFFTNVIQALGEHLKLRQQVIATATVYFKRFYARYSLKSIDPVLMAPTCVFLASKVEEFGVVSNTRLIAAATSVLKTRFSYAFPKEFPYRMNHILECEFYLLELMDCCLIVYHPYRPLLQYVQDMGQEDMLLPLAWRIVNDTYRTDLCLLYPPFMIALACLHVACVVQQKDARQWFAELSVDMEKILEIIRVILKLYEQWKNFDERKEMATILSKMPKPKPPPNSEGEQGPNGSQNSSYSQS
On to B9, for which the binding result with MED12 (endogenous) is listed as “binds”.

B10: MED18 (endogenous) (natural protein)
chain: MEAPPVTMMPVTGGTINMMEYLLQGSVLDHSLESLIHRLRGLCDNMEPETFLDHEMVFLLKGQQASPFVLRARRSMDRAGAPWHLRYLGQPEMGDKNRHALVRNCVDIATSENLTDFLMEMGFRMDHEFVAKGHLFRKGIMKIMVYKIFRILVPGNTDSTEALSLSYLVELSVVAPAGQDMVSDDMKNFAEQLKPLVHLEKIDPKRLM
As to B10, the binding result with MED13L (endogenous) is listed as “binds”.
